The assay concerns the target αvβ3 integrin (human (endogenous in U87MG)) (UniProt P06756).
Chain of UniProt P06756 (P06756 31-1048, chain 1 of 2): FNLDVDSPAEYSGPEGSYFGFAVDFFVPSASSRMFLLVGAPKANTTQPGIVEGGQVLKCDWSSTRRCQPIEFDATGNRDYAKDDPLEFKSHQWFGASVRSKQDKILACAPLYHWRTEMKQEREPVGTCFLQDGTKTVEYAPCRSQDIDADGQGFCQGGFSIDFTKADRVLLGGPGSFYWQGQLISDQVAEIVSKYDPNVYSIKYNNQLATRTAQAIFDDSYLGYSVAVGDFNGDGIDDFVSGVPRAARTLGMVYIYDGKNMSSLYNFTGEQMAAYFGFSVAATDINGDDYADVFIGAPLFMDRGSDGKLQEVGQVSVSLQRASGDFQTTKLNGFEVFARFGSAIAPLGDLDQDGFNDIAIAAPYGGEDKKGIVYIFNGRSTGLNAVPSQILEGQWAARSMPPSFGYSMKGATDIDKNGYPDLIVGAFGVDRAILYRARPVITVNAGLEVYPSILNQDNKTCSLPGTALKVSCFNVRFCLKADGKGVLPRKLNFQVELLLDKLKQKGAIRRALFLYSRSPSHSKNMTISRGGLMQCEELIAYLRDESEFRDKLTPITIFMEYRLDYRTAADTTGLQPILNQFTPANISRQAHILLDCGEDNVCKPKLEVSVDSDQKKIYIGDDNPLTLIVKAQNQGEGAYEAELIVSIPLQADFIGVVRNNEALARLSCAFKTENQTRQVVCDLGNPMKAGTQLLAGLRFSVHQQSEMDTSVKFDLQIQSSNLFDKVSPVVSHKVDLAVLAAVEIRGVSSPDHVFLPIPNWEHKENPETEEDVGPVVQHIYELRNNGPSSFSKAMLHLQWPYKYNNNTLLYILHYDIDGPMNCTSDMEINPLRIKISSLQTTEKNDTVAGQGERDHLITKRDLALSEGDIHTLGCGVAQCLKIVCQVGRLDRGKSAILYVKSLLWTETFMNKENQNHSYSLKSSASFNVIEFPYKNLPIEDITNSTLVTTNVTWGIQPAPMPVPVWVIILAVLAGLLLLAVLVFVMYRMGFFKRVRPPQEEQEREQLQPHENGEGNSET
Chain of UniProt P06756 (P05106 27-788, chain 2 of 2, further chain): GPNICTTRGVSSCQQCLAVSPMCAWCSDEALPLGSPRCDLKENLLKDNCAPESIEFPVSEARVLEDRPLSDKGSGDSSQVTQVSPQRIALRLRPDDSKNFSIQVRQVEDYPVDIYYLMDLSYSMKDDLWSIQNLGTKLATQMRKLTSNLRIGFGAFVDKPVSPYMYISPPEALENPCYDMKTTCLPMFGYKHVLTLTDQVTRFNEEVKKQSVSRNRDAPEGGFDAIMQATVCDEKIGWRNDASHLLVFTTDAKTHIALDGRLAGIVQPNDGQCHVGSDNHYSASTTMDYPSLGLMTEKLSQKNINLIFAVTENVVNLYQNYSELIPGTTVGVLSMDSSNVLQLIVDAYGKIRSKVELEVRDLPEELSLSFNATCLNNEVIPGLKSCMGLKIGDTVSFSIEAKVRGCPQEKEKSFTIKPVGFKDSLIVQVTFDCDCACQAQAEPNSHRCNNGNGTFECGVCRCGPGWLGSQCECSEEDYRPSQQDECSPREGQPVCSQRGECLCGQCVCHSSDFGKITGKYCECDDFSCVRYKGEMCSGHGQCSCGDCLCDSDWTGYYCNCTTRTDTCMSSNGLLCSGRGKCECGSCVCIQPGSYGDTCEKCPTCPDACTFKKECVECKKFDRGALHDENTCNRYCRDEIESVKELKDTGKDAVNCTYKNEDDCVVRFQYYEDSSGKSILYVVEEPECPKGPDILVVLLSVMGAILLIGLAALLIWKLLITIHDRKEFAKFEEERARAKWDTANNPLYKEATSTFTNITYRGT

700DX-PEG-PGlu-cRGD15 (peptide): the cellular uptake in U87MG cells at 200 nM 700DX (fluorescence intensity after 7 h), fold over cells incubated with 700DX-PEG-cRGD worked out at 2.5 times and the cellular uptake in U87MG cells at 200 nM 700DX (fluorescence intensity after 7 h), fold over cells incubated with free 700DX was 4.5 times.

(Values after PMC5970177.)
